Experimental data: US12269859B2, “Synthetic immune receptors and methods of use thereof” (Angeles Therapeutics, Inc., priority 2016, dated 2025)

System: target antigen-expressing cell line
Experiment: Jurkat NFAT-GFP assay, coculture with target cell lines expressing the respective target antigen (summary Table 10A)
Assay type: cell-based, human
Parameters: key: The signs +/−, +, 2+ etc. after the name of the cell lines indicate the relative degree of positivity on the Jurkat-NFAT-GFP assay as measured by the % GFP positive cells; +: relative degree of positivity on the Jurkat-NFAT-GFP assay as measured by the % GFP positive cells; 2+: relative degree of positivity on the Jurkat-NFAT-GFP assay as measured by the % GFP positive cells
In short: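 Jurkat cells carrying an NFAT-driven GFP reporter and lentivirally expressing a SIR were cocultured with antigen-bearing target cells (E:T ~1:2) for about 4–18 h. GFP induction read by flow cytometry as % GFP+ cells, scored positive and graded (+/−, +, 2+) against parental Jurkat-NFAT-GFP cells.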

B1: 101817-E05 (protein)
chain: MALPVTALLLPLALLLHAARPQSVVTQPPSVSAAPGQKVTISCSGSSSNIGNNYVSWYQQLPGTAPKLLIYDNNKRPSGIPDRFSASKSGTSATLGITGLQTRDEADYYCGTWDSSLSAWVFGGGTKLTVLGLEIQNPDPAVYQLRDSKSSDKSVCLFTDFDSQTNVSQSKDSDVYITDKCVLDMRSMDFKSNSAVAWSNKSDFACANAFNNSIIPEDTFFPSSDVPCDVKLVEKSFETDTNLNFQNLSVIGFRILLLKVAGFNLLMTLRLWSSRAKRSGSGVKQTLNFDLLKLAGDVESNPGPTSMDWIWRILFLVGAATGAHSFEQVQLVQSGAEVKKPGSSVKVSCKASGDTFSSYYISWVRQAPGQGLEWMGRIIPILGIANYAQKYQGRVTLSADKSTSTSYMELNSLSSEDTAVYYCALDWSYSIDYWGQGTLVTVSSTREDLKNVFPPEVAVFEPSKAEIAHTQKATLVCLATGFYPDHVELSWWVNGKEVHSGVCTDPQPLKEQPALNDSRYCLSSRLRVSATFWQNPRNHFRCQVQFYGLSENDEWTQDRAKPVTQIVSAEAWGRADCGITSASYHQGVLSATILYEILLGKATLYAVLVSALVLMAMVKRKDSRGRAKRSGSGATNFSLLKQAGDVEENPGPSRGHMTEYKPTVRLATRDDVPRAVRTLAAAFADYPATRHTVDPDRHIERVTELQELFLTRVGLDIGKVWVADDGAAVAVWTTPESVEAGAVFAEIGPRMAELSGSRLAAQQQMEGLLAPHRPKEPAWFLATVGVSPDHQGKGLGSAVVLPGVEAAERAGVPAFLETSAPRNLPFYERLGFTVTADVEVPEGPRTWCMTRKPGA
NFAT-GFP ASSAY Positive Cell lines (coculture with U266 cells): U266(+/−)

B2: 102116-A05 (protein)
chain: MRLPAQLLGLLMLWVSGSSGDVVMTQSPLSLPVTPGAPASISCRSSQSIVHSNGNTYLEWYLQKPGQSPKLLIYKVSNRFSGVPDRFSGSGSGTDFTLRISRVEAEDVGIYYCFQGSHVPPTFGPGTKLEIKLEEQKLISEEDLGSGEDLKNVFPPEVAVFEPSKAEIAHTQKATLVCLATGFYPDHVELSWWVNGKEVHSGVCTDPQPLKEQPALNDSRYCLSSRLRVSATFWQNPRNHFRCQVQFYGLSENDEWTQDRAKPVTQIVSAEAWGRADCGITSASYHQGVLSATILYEILLGKATLYAVLVSALVLMAMVKRKDSRGRAKRSGSGATNFSLLKQAGDVEENPGPTSMDWIWRILFLVGAATGAHSFEEVQLVESGGGLVQPGGSLRLSCSASGFTFSSFGMHWVRQAPGKGLEWVAYISSGSSTIYYGDTVKGRFTISRDNAKNSLFLQMSSLRAEDTAVYYCAREGGYYYGRSYYTMDYWGQGTTVTVSTREQKLISEEDLGSGIQNPDPAVYQLRDSKSSDKSVCLFTDFDSQTNVSQSKDSDVYITDKCVLDMRSMDFKSNSAVAWSNKSDFACANAFNNSIIPEDTFFPSSDVPCDVKLVEKSFETDTNLNFQNLSVIGFRILLLKVAGFNLLMTLRLWSSRAKRSGSGVKQTLNFDLLKLAGDVESNPGPSRGHMTEYKPTVRLATRDDVPRAVRTLAAAFADYPATRHTVDPDRHIERVTELQELFLTRVGLDIGKVWVADDGAAVAVWTTPESVEAGAVFAEIGPRMAELSGSRLAAQQQMEGLLAPHRPKEPAWFLATVGVSPDHQGKGLGSAVVLPGVEAAERAGVPAFLETSAPRNLPFYERLGFTVTADVEVPEGPRTWCMTRKPGA
modifications: Synthetic Immune Receptor (SIR)
NFAT-GFP ASSAY Positive Cell lines: RAJI (SIR-expressing Jurkat-NFAT-GFP cells cocultured with RAJI, relative % GFP positive cells): RAJI (+/−), U266
NFAT-GFP ASSAY Positive Cell lines: U266 (SIR-expressing Jurkat-NFAT-GFP cells cocultured with U266, relative % GFP positive cells): (+/−)

B3: 022817-U05 (protein)
chain: MALPVTALLLPLALLLHAARPDIQMNQSPSSLSASLGDTITITCHASQNINVWLSWYQQKPGNIPKLLIYKASNLHTGVPSRFSGSGSGTGFTITISSLQPEDIATYYCQQGQSYPWTFGGGTKLEIKRLEGKPIPNPLLGLDSTGSGEDLKNVFPPEVAVFEPSKAEIAHTQKATLVCLATGFYPDHVELSWWVNGKEVHSGVCTDPQPLKEQPALNDSRYCLSSRLRVSATFWQNPRNHFRCQVQFYGLSENDEWTQDRAKPVTQIVSAEAWGRADCGITSASYHQGVLSATILYEILLGKATLYAVLVSALVLMAMVKRKDSRGRAKRSGSGATNFSLLKQAGDVEENPGPTSMDWIWRILFLVGAATGAHSFEEVQLQQSGPELVKPGASVKISCKASGYSFTGYFMNWVKQSHGKSLEYIGRFNPYNGETLYNQKFKGKATLTVDKSSSTVHMELLSVTSEDSAVYYCGRSGNDDAMDYWGQGTSVTVSSATREQKLISEEDGSGIQNPDPAVYQLRDSKSSDKSVCLFTDFDSQTNVSQSKDSDVYITDKCVLDMRSMDFKSNSAVAWSNKSDFACANAFNNSIIPEDTFFPSSDVPCDVKLVEKSFETDTNLNFQNLSVIGFRILLLKVAGFNLLMTLRLWSSRAKRSGSGVKQTLNFDLLKLAGDVESNPGPSRGHMTEYKPTVRLATRDDVPRAVRTLAAAFADYPATRHTVDPDRHIERVTELQELFLTRVGLDIGKVWVADDGAAVAVWTTPESVEAGAVFAEIGPRMAELSGSRLAAQQQMEGLLAPHRPKEPAWFLATVGVSPDHQGKGLGSAVVLPGVEAAERAGVPAFLETSAPRNLPFYERLGFTVTADVEVPEGPRTWCMTRKPGA
modifications: Polynucleotide encoding a Synthetic Immune Receptor (SIR)
NFAT-GFP ASSAY Positive Cell lines (coculture with Jurkats-TCRgd-SIR cells): Jurkats-TCRgd-SIR

B4: 080816-G03 (protein)
chain: MALPVTALLLPLALLLHAARPLEGKPIPNPLLGLDSTGSGEDLKNVFPPEVAVFEPSKAEIAHTQKATLVCLATGFYPDHVELSWWVNGKEVHSGVCTDPQPLKEQPALNDSRYCLSSRLRVSATFWQNPRNHFRCQVQFYGLSENDEWTQDRAKPVTQIVSAEAWGRADCGITSASYHQGVLSATILYEILLGKATLYAVLVSALVLMAMVKRKDSRGRAKRSGSGATNFSLLKQAGDVEENPGPTSTMALPVTALLLPLALLLHAARPDIVMTQSQKFMSTSVGDRVSIICKASQNVGTFVAWYQQKPGQSPKLLVYSASNRYTGVPDRFTGSGSGTDFTLTINNMQSEDLADYFCRQYSSYPYTFGGGTKLEIKGGGGSGGGGSGGGGSEVQLQQSGPELVKPGASMKISCKASGYSFSAYTMNWVKQSHGKNLEWIGLINPYNGGTNYNQEFEGKATLTVNKSSNTAFMELLSLTSDDSAVYYCARRDWDYFDYWGQGTTLTVSSTREQKLISEEDLGSGTPFPSLAPPIMLLVDGKQQMVVVCLVLDVAPPGLDSPIWFSAGNGSALDAFTYGPSPATDGTWTNLAHLSLPSEELASWEPLVCHTGPGAEGHSRSTQPMHLSGEASTARTCPQEPLRGTPGGALWLGVLRLLLFKLLLFDLLLTCSCLCDPAGPLPSPATTTRLRALGSHRLHPATETGGREATSSPRPQPRDRRWGDTPPGRKPGSPVRAKRSGSGVKQTLNFDLLKLAGDVESNPGPSRSRGHMTEYKPTVRLATRDDVPRAVRTLAAAFADYPATRHTVDPDRHIERVTELQELFLTRVGLDIGKVWVADDGAAVAVWTTPESVEAGAVFAEIGPRMAELSGSRLAAQQQMEGLLAPHRPKEPAWFLATVGVSPDHQGKGLGSAVVLPGVEAAERAGVPAFLETSAPRNLPFYERLGFTVTADVEVPEGPRTWCMTRKPGA
modifications: Polynucleotide encoding a Synthetic Immune Receptor (SIR)
NFAT-GFP ASSAY Positive Cell lines (coculture with TT cells): TT (+/−)

B5: 112916-A01 (protein)
chain: MALPVTALLLPLALLLHAARPDIVMTQTPLSLPVTPGEPASISCRSSRSLLDSDDGNTYLDWYLQKPGQSPQLLIYTLSYRASGVPDRFSGSGSGTDFTLKISRVEAEDVGVYYCMQRVEFPITFGQGTRLEIKRLEGKPIPNPLLGLDSTGSGEDLKNVFPPEVAVFEPSKAEIAHTQKATLVCLATGFYPDHVELSWWVNGKEVHSGVCTDPQPLKEQPALNDSRYCLSSRLRVSATFWQNPRNHFRCQVQFYGLSENDEWTQDRAKPVTQIVSAEAWGRADCGITSASYHQGVLSATILYEILLGKATLYAVLVSALVLMAMVKRKDSRGRAKRSGSGATNFSLLKQAGDVEENPGPTSMDWIWRILFLVGAATGAHSFEQVQLVESGGGVVQPGRSLRLSCAASGFIFSRYGMHWVRQAPGKGLKWVAVIWYDGSNKLYADSVKGRFTISRDNSKNTLYLQMNSLRAEDTAVYYCARDYYDNSRHHWGFDYWGQGTLVTVSSTREQKLISEEDGSGIQNPDPAVYQLRDSKSSDKSVCLFTDFDSQTNVSQSKDSDVYITDKCVLDMRSMDFKSNSAVAWSNKSDFACANAFNNSIIPEDTFFPSSDVPCDVKLVEKSFETDTNLNFQNLSVIGFRILLLKVAGFNLLMTLRLWSSRAKRSGSGVKQTLNFDLLKLAGDVESNPGPSRGHMTEYKPTVRLATRDDVPRAVRTLAAAFADYPATRHTVDPDRHIERVTELQELFLTRVGLDIGKVWVADDGAAVAVWTTPESVEAGAVFAEIGPRMAELSGSRLAAQQQMEGLLAPHRPKEPAWFLATVGVSPDHQGKGLGSAVVLPGVEAAERAGVPAFLETSAPRNLPFYERLGFTVTADVEVPEGPRTWCMTRKPGA
modifications: Polynucleotide encoding a Synthetic Immune Receptor (SIR)
NFAT-GFP ASSAY Positive Cell lines (coculture with SKOV3 cells): SKOV3 (+)
